Data reported in PMC6362186, “Isolation and biochemical characterization of a metagenome-derived 3-deoxy-D-arabino-heptulosonate-7-phosphate synthase gene from subtropical marine mangrove wetland sediments” (AMB Express, 2019).

System: T1, C=C(OP(=O)(O)O)C(=O)O
T1 construct: His-tagged from pET-30a(+) HindIII/XhoI, tag removal not mentioned, ~37 kDa on SDS-PAGE; E. coli Rosetta (DE3), Ni resin; tetramer only by homology model
Experiment: purified protein
Assay type: biochemical, uncultured bacterium
Details: co-substrate D-erythrose 4-phosphate, optimal conditions pH 8.0, 40 °C, CoCl2 0.1 mM in standard assay, PEP range printed as 0.1–0.5 μM

Aro1A (uncultured bacterium)
Km: 19.58 µM
kcat: 17.3 s⁻¹
